Source: ChEMBL document CHEMBL1275523

How the values were obtained:
Format in all cases: cell-based
[1] = substrate: CC(=O)N[C@H]1[C@H]([C@H](O)[C@H](O)CO)O[C@@](Oc2ccc3c(C)cc(=O)oc3c2)(C(=O)O)C[C@@H]1O; test: Activity of human NEU4 expressed in HEK293 cells by fluorometric high-performance liquid chromatography
[2] = substrate: CC(=O)N[C@H]1[C@H]([C@H](O)[C@H](O)CO)O[C@@](Oc2ccc3c(C)cc(=O)oc3c2)(C(=O)O)C[C@@H]1O; test: Activity of human NEU2 expressed in HEK293 cells by fluorometric high-performance liquid chromatography
[3] = substrate: CCCCCCCCCCCCC/C=C/[C@@H](O)[C@H](CO[C@@H]1O[C@H](CO)[C@@H](O[C@@H]2O[C@H](CO)[C@H](O)[C@H](O[C@]3(C(=O)O)C[C@H](O)[C@@H](NC(C)=O)[C@H]([C@H](O)[C@H](O)CO)O3)[C@H]2O)[C@H](O)[C@H]1O)NC(=O)CCCCCCCCCCCCCCCCCCCCCC; test: Activity of human NEU3 expressed in HEK293 cells by fluorometric high-performance liquid chromatography

B1: Sialidase-4 (Homo sapiens), Q8WWR8 (protein)
chain: MGVPRTPSRTVLFERERTGLTYRVPSLLPVPPGPTLLAFVEQRLSPDDSHAHRLVLRRGTLAGGSVRWGALHVLGTAALAEHRSMNPCPVHDAGTGTVFLFFIAVLGHTPEAVQIATGRNAARLCCVASRDAGLSWGSARDLTEEAIGGAVQDWATFAVGPGHGVQLPSGRLLVPAYTYRVDRRECFGKICRTSPHSFAFYSDDHGRTWRCGGLVPNLRSGECQLAAVDGGQAGSFLYCNARSPLGSRVQALSTDEGTSFLPAERVASLPETAWGCQGSIVGFPAPAPNRPRDDSWSVGPGSPLQPPLLGPGVHEPPEEAAVDPRGGQVPGGPFSRLQPRGDGPRQPGPRPGVSGDVGSWTLALPMPFAAPPQSPTWLLYSHPVGRRARLHMGIRLSQSPLDPRSWTEPWVIYEGPSGYSDLASIGPAPEGGLVFACLYESGARTSYDEISFCTFSLREVLENVPASPKPPNLGDKPRGCCWPS
- Km [1]: 20.3 µM

B2: Sialidase-2 (Homo sapiens), Q9Y3R4 (protein)
chain: MASLPVLQKESVFQSGAHAYRIPALLYLPGQQSLLAFAEQRASKKDEHAELIVLRRGDYDAPTHQVQWQAQEVVAQARLDGHRSMNPCPLYDAQTGTLFLFFIAIPGQVTEQQQLQTRANVTRLCQVTSTDHGRTWSSPRDLTDAAIGPAYREWSTFAVGPGHCLQLHDRARSLVVPAYAYRKLHPIQRPIPSAFCFLSHDHGRTWARGHFVAQDTLECQVAEVETGEQRVVTLNARSHLRARVQAQSTNDGLDFQESQLVKKLVEPPPQGCQGSVISFPSPRSGPGSPAQWLLYTHPTHSWQRADLGAYLNPRPPAPEAWSEPVLLAKGSCAYSDLQSMGTGPDGSPLFGCLYEANDYEEIVFLMFTLKQAFPAEYLPQ
- Km [2]: 1800 µM

B3: Sialidase-3 (Homo sapiens), Q9UQ49 (protein)
chain: MEEVTTCSFNSPLFRQEDDRGITYRIPALLYIPPTHTFLAFAEKRSTRRDEDALHLVLRRGLRIGQLVQWGPLKPLMEATLPGHRTMNPCPVWEQKSGCVFLFFICVRGHVTERQQIVSGRNAARLCFIYSQDAGCSWSEVRDLTEEVIGSELKHWATFAVGPGHGIQLQSGRLVIPAYTYYIPSWFFCFQLPCKTRPHSLMIYSDDLGVTWHHGRLIRPMVTVECEVAEVTGRAGHPVLYCSARTPNRCRAEALSTDHGEGFQRLALSRQLCEPPHGCQGSVVSFRPLEIPHRCQDSSSKDAPTIQQSSPGSSLRLEEEAGTPSESWLLYSHPTSRKQRVDLGIYLNQTPLEAACWSRPWILHCGPCGYSDLAALEEEGLFGCLFECGTKQECEQIAFRLFTHREILSHLQGDCTSPGRNPSQFKSN
- Km [3]: 45.6 µM
